# Where a chain is given by its changes, count along the chain named.
# B1: anti-MCP-1 mAb 2.4.1 (antibody, V domains shown)
# VH: QVQLVQSGAEVKKPGASVKVSCKASGYTFTGYYLHWVRQAPGQGLEWMGWINPYNDGTNYAQKFQGRVTMTRDTSISTAYMELSRLRSDDTAVYYCARDIAAAGAVYFDYWGQGTLVTVSS
# VL: DIQMTQSPSSLSASVGDRVTITCQASQDITTYLNWYQQKPGKAPKLLIYDASNLETGVPSRFSGSGSGTDFTFTISSLQPEDIATYYCQQYDNLPITFGQGTRLEIKR
# B2: anti-MCP-1 mAb 1.9.1 (antibody, V domains shown)
# VH: QVQLVQSGAEVKKPGASVKVSCKVSGYTLTELSMHWVRQAPGKGLEWMGGFDPEDGETINAQKFQGRVTMTEDTSTDTGYMELSSLRSEDTAVYYCATDPGGYSGYFDHWGQGTLVTVSS
# VL: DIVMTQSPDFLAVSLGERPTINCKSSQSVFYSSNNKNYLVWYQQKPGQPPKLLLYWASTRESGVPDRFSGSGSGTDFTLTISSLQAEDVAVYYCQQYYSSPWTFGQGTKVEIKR
# B3: anti-MCP-1 mAb 3.8 (antibody, V domains shown)
# VH: B2 VH with D55N, N60H, T69I, G79A, P100Q, H109C
# VL: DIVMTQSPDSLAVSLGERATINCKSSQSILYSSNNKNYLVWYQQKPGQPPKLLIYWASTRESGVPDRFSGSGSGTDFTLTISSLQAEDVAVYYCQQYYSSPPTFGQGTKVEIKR
# notes: also called 3.8.1
# B4: anti-MCP-1 mAb 3.7.1 (antibody, human IgG2, kappa, V domains shown)
# VH: QVQLVQSGAEVKKPGASVKVSCKVSGYTLTELSMHWVRQTPGKGLEWMGGFDPEDGETIYAQKFQDRVTMTEDTSTDTAYMELSSLRSEDTAVYYCATNDFWTGYYDYWGQGTLVTVSS
# VL: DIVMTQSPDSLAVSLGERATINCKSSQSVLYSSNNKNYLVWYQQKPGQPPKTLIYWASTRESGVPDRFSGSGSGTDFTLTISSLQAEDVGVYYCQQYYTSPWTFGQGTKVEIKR
# notes: also called 3.7.2
# B5: anti-MCP-1 mAb 3.6.1 (antibody, V domains shown)
# VH: B4 VH with T40A, D66G, T98I, N99H, D100E, T103S, Y106F
# VL: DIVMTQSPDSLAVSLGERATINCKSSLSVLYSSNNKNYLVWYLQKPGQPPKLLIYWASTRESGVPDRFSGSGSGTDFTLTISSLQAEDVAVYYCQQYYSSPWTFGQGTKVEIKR
# B6: anti-MCP-1 mAb 3.5.1 (antibody, V domains shown)
# VH: B4 VH with T30S, T40A, G56D, D66G, Y80F, N99H, T103S, Y106F, D107H
# VL: DIVMTQSPDSLAVSLGERATINCKSSQSVLYSSDNKSYLVWYQQKPGQPPKVLIYWASIRESGVPDRFSGSGSGTDFTLTISSLQAEDVAVYYCQQYYTSPWTFGQGTKVEIKR
# B7: anti-MCP-1 mAb 5.3.1 (antibody, V domains shown)
# VH: B4 VH with T30S, T40A, D66G, Y94F, N99K, D100R, F101E, W102Y, T103S, Y106F
# VL: DIVMTQSPDSLAVSLGERATINCKSSQSVLYSSNSKNYLAWFQQKPGQPPKLLIYWASTRESGVPDRFSGSGSGTDFTLTISRLQAEDVAVYSCQQYFITPWTFGQGTKVELKR
# Molecular target: T1, human monocyte chemo-attractant protein-1 (MCP-1) (human, UniProt P13500 24-99)
# T1 construct: 76-residue recombinant protein from E. coli, bought (PeproTech); also called hMCP-1(MCAF); human MCP-1
# Experiment: ELISA, coated antigen; ELISA, purified clone 1:50 on coated hMCP-1 (2 ug/mL), cross-reactivity panel
# Protocol: Determining cross-reactivity of anti-MCP-1 antibodies with other chemokines. ELISA plates (Fisher Cat. No. 12-565-136) were coated with 50 μl/well of MCP-1, MCP-2, MCP-3, MCP-4, RANTES, GRO-alpha, MIP-1 alpha, eotaxin, rat MCP-1 and mouse JE (2 μg/ml) in coating buffer (0.1 M carbonate buffer, pH 9.6, NaHCO₃ 8.4 g/L, then incubated at 4° C. overnight. After incubation, the plates were washed with washing buffer (0.05% Tween 20 in PBS) three times. 200 μL/well blocking buffer (0.5% BSA, 0.1% Tween 20, 0.01% Thimerosal in 1×PBS) were added and the plates incubated at room temperature for 1 hour. After incubation, the plates were washed with washing buffer three times. 50 μL/well of hybridoma supernatants, and positive and negative controls (positive control was anti-MCP-1 antibody purchased from R&D Sciences, and negative control was an antibody to Keyhole Limpet Hemocyanin produced at Abgenix) were added and the plates incubated at room temperature for 2 hours. After incubation, the plates were washed three times with washing buffer. […] After incubation, the plates were washed three times with washing buffer and 100 μL/well of TMB (BioFX Lab. Cat. #TMSK-0 100-01) was added and the plates allowed to develop for about 10 minutes.
# T1 sequence (P13500 24-99): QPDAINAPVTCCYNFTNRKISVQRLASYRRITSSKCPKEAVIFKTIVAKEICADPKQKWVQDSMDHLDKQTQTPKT
row,Binder,ELISA OD [OD450]
1,B1,0.462
2,B2,0.446
3,B3,0.275
4,B4,1.28
5,B5,0.342
6,B6,0.194
7,B7,0.272

# Molecular target: T1, human monocyte chemo-attractant …
# Experiment: ELISA, hybridoma supernatant on coated MCP-1; ELISA, hybridoma supernatant on plate-coated non-reduced MCP-1 (2 ug/mL)
# Protocol: Selection of candidate antibodies for ELISA. After 14 days of culture, hybridoma supernatants were screened for MCP-1-specific monoclonal antibodies. The ELISA plates (Fisher, Cat. No. 12-565-136) were coated with 50 μl/well of MCP-1 (2 μg/mL) in Coating Buffer (0.1 M Carbonate Buffer, pH 9.6, NaHCO₃8.4 g/L), then incubated at 4° C. overnight. After incubation, the plates were washed with Washing Buffer (0.05% Tween 20 in PBS) three times. 200 μl/well Blocking Buffer (0.5% BSA, 0.1% Tween 20, 0.01% Thimerosal in 1× PBS) were added and the plates incubated at room temperature for 1 hour. After incubation, the plates were washed with Washing Buffer three times. 50 μL/well of hybridoma supernatants, and positive and negative controls were added and the plates incubated at room temperature for 2 hours.
# The positive control used throughout was XMG2 MCP-1 Group 1, footpad N160-7 and the negative control was XMG2 KLH Group 1, footpad L627-6. After incubation, the plates were washed three times with Washing Buffer. […] In the secondary screen, three sets of samples (positives in first screening) were screened, one set for hIgG detection, one set for hKappa detection, and one set for hlambda detection. After incubation, the plates were washed three times with Washing Buffer. 100 μL/well of TMB (BioFX Lab. Cat. #TMSK-0100-01) were added and the plates allowed to develop for about 10 minutes (until negative control wells barely started to show color), then 50 μL/well stop solution (TMB Stop Solution (BioFX Lab. Cat. #STPR-0100-01) were added and the plates read on an ELISA plate reader at wavelength 450 nm. The OD readings from the positive wells are presented in Table 9.
row,Binder,ELISA OD-MCP-1 [OD450]
1,B1,3.89
2,B2,3.66
3,B3,3.6
4,B4,4
5,B5,3.59
6,B6,3.77
7,B7,4

# Molecular target: T1, human monocyte chemo-attractant …
# Experiment: cell-based or functional assay
Binder,IC50 Ca++ Flux [µg/mL],IC50 Chemotaxis [µg/mL]
B1,0.26,> 5
B2,1.2,35
B3,0.27,0.7
B4,0.094,0.98
B5,0.17,0.52
B6,0.58,3.1
B7,1.8,2.6

# Molecular target: T1, human monocyte chemo-attractant …
# Experiment: Biacore, mAb immobilized, MCP-1 injected; Biacore, 25 C, native MCP-1 injected over immobilized mAb
# Protocol: Determination of anti-MCP-1 antibody affinity using Biacore analysis. The antibody/MCP-1 interaction analysis was performed at 25° C. using two CM5 chips docked in Biacore 3000 optical biosensors. Individual flow cells on each chip were activated with a 7-minute injection of NHS/EDC, carbohydrazide was coupled through the NHS ester using a 7-minute injection, and the residual activated groups were blocked with a 7-minute injection of ethanolamine. The monosaccharide residues of each antibody were oxidized using 1 mM sodium metaperiodate in 100 mM sodium acetate, pH 5.5 at 4° C. for 30 minutes. The oxidized antibody was desalted into 100 mM sodium acetate, pH 5.0, to couple the antibody to the carbohydrazide-modified surface. The mAb surfaces were stabilized by reducing the hydrazone bond with 0.1 M sodium cyanoborohydride. The antigen/antibody interaction was tested by injecting 0, 0.049, 0.15, 0.4, 1.3, 4 and 12 nM of MCP-1 (Peprotech, N.J.) in running buffer (10 mM HEPES, 150 mM NaCl, 0.005% surfactant, 200 μg/ml BSA, pH 7.4). The surfaces were regenerated with a 12-second pulse of 15 mM H₃PO₄. The antigen/antibody interaction was tested by injecting duplicate antigen samples diluted in running buffer (10 mM HEPES, […], 0.005% surfactant, 200 μg/mL BSA, pH 7.4), in a 300-fold concentration range. The surfaces were regenerated with a 12-second pulse of 15 mM H₃PO₄. To determine the kinetics of each interaction, the data sets were fit globally to a 1:1 interaction model that included a parameter for mass transport.
row,Binder,Kd [nM]
1,B1,0.014
2,B2,0.096
3,B3,0.0034
4,B4,0.0048
5,B5,0.015
6,B6,0.1
7,B7,0.45

# Molecular target: T2, human MIP-1-alpha (human, UniProt P10147 24-92, limits assumed)
# T2 construct: also called hMIP-1-alpha
# T2 sequence (looked up): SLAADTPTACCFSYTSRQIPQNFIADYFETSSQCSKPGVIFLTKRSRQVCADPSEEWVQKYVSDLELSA
# Experiment: ELISA, coated antigen
# Method in brief: (§1)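 Plates coated overnight at 4° C with MCP-1, MCP-2, MCP-3, MCP-4, RANTES, GRO-alpha, MIP-1 alpha, eotaxin, rat MCP-1 or mouse JE (2 μg/ml, carbonate buffer pH 9.6), blocked with BSA. Hybridoma supernatants bound 2 hours at room temperature; TMB colour developed about 10 minutes.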
row,Binder,ELISA OD [OD450]
1,B1,0.061
2,B2,0.044
3,B3,0.046
4,B4,0.049
5,B5,0.047
6,B6,0.047
7,B7,0.042

# Molecular target: T3, recombinant human MCP-4 (human, UniProt Q99616 24-98, limits assumed)
# T3 construct: also called rhMCP-4
# Experiment: ELISA, coated antigen
# Method in brief: as §1
# T3 sequence (Q99616 24-98 limits assumed): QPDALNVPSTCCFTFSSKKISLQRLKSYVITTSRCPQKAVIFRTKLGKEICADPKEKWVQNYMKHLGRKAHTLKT
row,Binder,ELISA OD [OD450]
1,B1,0.06
2,B2,0.042
3,B3,0.044
4,B4,0.048
5,B5,0.048
6,B6,0.044
7,B7,0.043

# Molecular target: T4, recombinant human MCP-3 (human, UniProt P80098 24-99)
# T4 construct: also called rhMCP-3
# Experiment: ELISA, coated antigen
# Method in brief: as §1
# T4 sequence (P80098 24-99 limits assumed): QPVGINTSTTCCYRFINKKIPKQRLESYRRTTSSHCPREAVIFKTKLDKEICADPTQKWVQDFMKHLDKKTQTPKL
row,Binder,ELISA OD [OD450]
1,B1,0.066
2,B2,0.044
3,B3,0.046
4,B4,0.048
5,B5,0.045
6,B6,0.045
7,B7,0.045

# Molecular target: T5, human RANTES (human, UniProt P13501 24-91)
# T5 construct: also called hRANTES
# T5 sequence (looked up): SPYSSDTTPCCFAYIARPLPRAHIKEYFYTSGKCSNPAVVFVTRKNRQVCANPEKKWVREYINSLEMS
# Experiment: ELISA, coated antigen
# Method in brief: as §1
row,Binder,ELISA OD [OD450]
1,B1,0.046
2,B2,0.042
3,B3,0.046
4,B4,0.067
5,B5,0.043
6,B6,0.044
7,B7,0.045

# Molecular target: rat MCP-1 (rat, UniProt P14844 24-148)
# Experiment: ELISA, coated antigen
# Method in brief: as §1
# Chain of rat MCP-1 (P14844 24-148 limits assumed): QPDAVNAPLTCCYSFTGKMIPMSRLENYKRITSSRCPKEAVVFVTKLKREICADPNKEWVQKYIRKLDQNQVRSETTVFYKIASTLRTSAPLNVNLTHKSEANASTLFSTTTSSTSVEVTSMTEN
row,Binder,ELISA OD [OD450]
1,B1,0.077
2,B2,0.065
3,B3,0.062
4,B4,0.048
5,B5,0.046
6,B6,0.053
7,B7,0.047

# Molecular target: T6, recombinant human MCP-2 (human, UniProt P80075 24-99)
# T6 construct: also called rhMCP-2
# T6 sequence (looked up): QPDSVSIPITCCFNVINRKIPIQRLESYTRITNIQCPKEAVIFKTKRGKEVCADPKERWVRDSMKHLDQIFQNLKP
# Experiment: ELISA, coated antigen
# Method in brief: as §1
row,Binder,ELISA OD [OD450]
1,B1,0.045
2,B2,0.04
3,B3,0.042
4,B4,0.043
5,B5,0.052
6,B6,0.042
7,B7,0.043

# Molecular target: T7, human eotaxin (human, UniProt P51671 24-97)
# T7 construct: also called hEotaxin
# Experiment: ELISA, coated antigen
# Method in brief: as §1
# T7 sequence (P51671 24-97 limits assumed): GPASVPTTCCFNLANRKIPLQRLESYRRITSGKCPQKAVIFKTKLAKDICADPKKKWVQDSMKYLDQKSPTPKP
row,Binder,ELISA OD [OD450]
1,B1,0.084
2,B2,0.042
3,B3,0.042
4,B4,0.043
5,B5,0.043
6,B6,0.043
7,B7,0.042

# Molecular target: T8, human GRO/MGSA (human, UniProt P09341 35-107)
# T8 construct: also called hGRO/MGSA; GRO-alpha
# T8 sequence (looked up): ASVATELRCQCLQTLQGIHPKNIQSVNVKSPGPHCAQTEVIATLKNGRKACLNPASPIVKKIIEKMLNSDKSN
# Experiment: ELISA, coated antigen
# Method in brief: as §1
row,Binder,ELISA OD [OD450]
1,B1,0.048
2,B2,0.043
3,B3,0.046
4,B4,0.045
5,B5,0.047
6,B6,0.048
7,B7,0.045

# Molecular target: T9, recombinant mouse JE/MCP-1 (mouse, UniProt P10148 24-148)
# T9 construct: also called rmJE/MCP-1
# Experiment: ELISA, coated antigen
# Method in brief: as §1
# T9 sequence (P10148 24-148 limits assumed): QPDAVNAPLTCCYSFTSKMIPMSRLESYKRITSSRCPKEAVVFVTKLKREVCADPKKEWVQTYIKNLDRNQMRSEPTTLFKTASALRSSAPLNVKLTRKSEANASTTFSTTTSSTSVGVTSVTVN
row,Binder,ELISA OD [OD450]
1,B1,0.129
2,B2,0.053
3,B3,0.042
4,B4,0.046
5,B5,0.047
6,B6,0.042
7,B7,0.05
